{
  "source": "patent US20230075753A1",
  "about": "(UCB, published 2023)",
  "binders": {"B1": {"name": "Antibody 10236 gL6-N94DgH12 (IgG4P) (antibody, V domains shown)", "VH": "EVQLQESGPGLVKPSGTLSLTCAVSGFPLSNYAMSWVRQPPGKGLEWIGDIYPSDIIDYASWAKGRVTISQDSSKNQVSLKLSSVTAADTAVYYCARDNNDYGLDIWGQGTLVTVSS", "VL": "AYDMTQSPSSLSASVGDRVTITCQASQSISSWLAWYQQKPGKAPKLLIYLASTLASGVPSRFSGSGSGTDFTLTISSLQPEDFATYYCQQGYTDSNIINTFGGGTKVEIKR", "notes": "surrogate for the fully deamidated product of 10236gL6gH12"}, "B2": {"name": "Humanized antibody 10236 gL6gH12 (antibody, V domains shown)", "VH": "B1 VH", "VL": "B1 VL with D94N", "notes": "also called Ab10236gL6gH12"}, "B3": {"name": "LEKTI D5 Fab fusion protein (other)", "heavy": "EVQLLESGGGLVQPGGSLRLSCAVSGIDLSNYAINWVRQAPGKGLEWIGIIWASGTTFYATWAKGRFTISRDNSGGGGSGGGGSREIVKLCSQYQNQAKNGILFCTRENDPIRGPDGKMHGNLCSMCQAYFQAENEEKKKAEARARSGGGGGGGGSKNTVYLQMNSLRAEDTAVYYCARTVPGYSTAPYFDLWGQGTLVTVSSASTKGPSVFPLAPSSKSTSGGTAALGCLVKDYFPEPVTVSWNSGALTSGVHTFPAVLQSSGLYSLSSVVTVPSSSLGTQTYICNVNHKPSNTKVDKKVEPKSCHHHHHHHHHH", "light": "DIQMTQSPSSVSASVGDRVTITCQSSPSVWSNFLSWYQQKPGKAPKLLIYEASKLTSGVPSRFSGSGSGTDFTLTISSLQPEDFATYYCGGGYSSISDTTFGGGTKVEIKRTVAAPSVFIFPPSDEQLKSGTASVVCLLNNFYPREAKVQWKVDNALQSGNSQESVTEQDSKDSTYSLSSTLTLSKADYEKHKVYACEVTHQGLSSPVTKSFNRGEC", "notes": "the Fab itself is specific for albumin; also called Human LEKTI D5 Fab fusion protein"}},
  "key": {"Active human KLK5 [1]": {"target": "T1, Active human KLK5 (human, UniProt Q9Y337 67-293)", "T1 construct": "glycosylated; also called Hu KLK5; KLK5 analyte (prepared in house)", "experiment": "SPR, Biacore T200, 25 C; IgG captured on anti-human Fc, human KLK5 as analyte (20-0.03 nM), 1:1 model", "procedure": "The kinetics of binding of both antibodies 10236gL6gH12 and 10236gL6-N94DgH12 to human KLK5 were assessed by surface plasmon resonance (Biacore T200, GE Life Sciences™) at 25° C. to assess the impact of 100% deamidation.\n(§1) A goat anti-human IgG Fc specific antibody (Jackson ImmunoResearch) was immobilized on a CM5 Sensor Chip via amine coupling chemistry to a level of approximately 6000RU. Each analysis cycle consisted of capture of the anti-KLK5 IgG molecules to the anti Fc surface, injection of KLK5 analyte (prepared in house) for 300 s at 30 μl/min followed by 600 s dissociation. At the end of each cycle the surface was regenerated at a flowrate of 10 μL/min using a 60 s injection of 50 mM HCl followed by a 30 s injection of 5 mM NaOH and a final 60 s injection of 50 mM HCl. Human KLK5 was titrated from 20 nM to 0.03 nM (6×3-fold serial dilutions) in HBS-EP+ running buffer (GE Healthcare) supplemented to a final concentration of 300 mM NaCl. Buffer blank injections were included to subtract instrument noise and drift. Kinetic parameters were determined using a 1:1 binding model using Biacore T200 Evaluation software (version 3.0)."}, "Active human KLK5 [2]": {"target": "T1, Active human KLK5", "experiment": "SPR, Biacore T200, 25 C; reference 10236gL6gH12", "procedure": "as §1"}, "Active cyno KLK5": {"target": "T2, Active cyno KLK5 (cynomolgus monkey, UniProt Q9Y337 67-293 (human entry))", "T2 chain": "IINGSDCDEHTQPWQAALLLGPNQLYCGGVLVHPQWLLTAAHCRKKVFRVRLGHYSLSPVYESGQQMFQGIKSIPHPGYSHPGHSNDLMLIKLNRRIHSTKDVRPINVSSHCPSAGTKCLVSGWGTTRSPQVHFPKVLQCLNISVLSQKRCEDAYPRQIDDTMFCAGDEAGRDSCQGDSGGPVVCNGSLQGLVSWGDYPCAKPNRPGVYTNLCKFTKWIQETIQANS", "experiment": "cell-based or functional assay"}, "Active human KLK5 [3]": {"target": "T1, Active human KLK5", "experiment": "SPR; average of the 2 runs of Table 15"}, "Active human KLK5 [4]": {"target": "T1, Active human KLK5", "experiment": "SPR, Biacore T200, 25 C; IgG from supernatant captured on anti-human Fc, human KLK5 as analyte (20-0.08 nM), 1:1 model", "procedure": "A goat anti-human IgG Fc specific antibody (Jackson ImmunoResearch) was immobilized on a CM5 Sensor Chip via amine coupling chemistry to a level of approximately 6000RU. Each analysis cycle consisted of capture of the anti-KLK5 IgG from supernatants to the anti Fc surface, injection of KLK5 analyte (prepared in house) for 180 s at 30 μl/min followed by 600 s dissociation. At the end of each cycle the surface was regenerated at a flowrate of 10 μL/min using a 60 s injection of 50 mM HCl followed by a 30 s injection of 5 mM NaOH and a final 60 s injection of 50 mM HCl. Human KLK5 was titrated from 20 nM to 0.08 nM (5×3-fold serial dilutions) for the supernatant in HBS-EP+ running buffer (GE Healthcare®) supplemented to a final concentration of 300 mM NaCl. Buffer blank injections were included to subtract instrument noise and drift. Kinetic parameters were determined using a 1:1 binding model using Biacore T200 Evaluation software (version 3.0). Experiments were carried out at 25° C."}, "Active human KLK5 [5]": {"target": "T1, Active human KLK5", "experiment": "SPR, Biacore T200; LEKTI D5 Fab fusion immobilised on CM5 chip, human KLK5 injected 0.32-32 nM, single cycle kinetics, 1:1 model; human KLK5 alone, no antibody 10236; LEKTI D5 Fab fusion immobilised on the chip", "procedure": "(§2) Kinetic measurements for the binding of LEKTI D5 Fab fusion protein to human KLK5 were obtained using a Biacore T200 (GE Life Sciences™). To prepare the surface, CM5 chips (GE Life Sciences™) were first activated with a 5-minute injection (30 μL min⁻¹) of a mixture of EDC/NHS (GE Life Sciences™) followed by injection of 100 μg mL⁻¹ LEKTI D5 Fab fusion (UCB) in acetate buffer, pH 5.0 (GE Life Sciences™) to achieve 80 RU immobilised LEKTI D5 Fab fusion on the chip surface. Finally, an injection of 1 M Ethanolamine hydrochloride-NaOH pH 8.5 was utilised to deactivate the surface. Increasing concentrations of human KLK5 from 0.32 to 32 nM in HBS-EP buffer (GE Life Sciences™) were then injected in the single cycle kinetics mode. Values resulting from buffer only injections were subtracted from those obtained for the KLK5 injections and kinetics determined by fitting to a 1:1 binding model in BIAcore evaluation software (GE Life Sciences™)\n(§3) As reference, LEKTI D5 Fab fusion protein was immobilised to the chip surface prior to monitoring the interaction with human KLK5."}, "Active human KLK5 [6]": {"target": "T1, Active human KLK5", "experiment": "SPR; antibody 10236 gL6gH12 captured on anti-human Fc and loaded with human KLK5, LEKTI D5 Fab fusion injected, 1:1 model; KLK5 in complex with 10236 gL6gH12", "procedure": "(§4) The experimental conditions described in example 5 were used with the exception that an anti-human Fc chip surface was prepared, and the results are reported in Table 6."}, "Active human KLK5 [7]": {"target": "T1, Active human KLK5", "experiment": "SPR; antibody 10236 gL6gH12 captured on anti-human Fc and loaded with human KLK5, LEKTI D5 Fab fusion injected, 1:1 model; KLK5 in complex with 10236 gL6gH12; KLK5 already in complex with antibody 10236 gL6gH12", "procedure": "as §4"}, "Active human KLK5 [8]": {"target": "T1, Active human KLK5", "experiment": "SPR; LEKTI D5 Fab fusion immobilised, human KLK5 injected; reference row, same values as Table 4A", "procedure": "as §2, §3"}, "Active human KLK5 [9]": {"target": "T1, Active human KLK5", "experiment": "SPR, Biacore T200; LEKTI D5 Fab fusion immobilised on CM5 chip, human KLK5 injected 0.32-32 nM, single cycle kinetics, 1:1 model", "procedure": "as §2, §3"}, "Active human KLK5 [10]": {"target": "T1, Active human KLK5", "experiment": "SPR, Biacore; rabbit antibody 10236 captured on anti-rabbit Fc and saturated with 20 nM human KLK5, LEKTI D5 Fab fusion injected 30 pM-100 nM, 1:1 model; KLK5 in complex with 10236", "procedure": "20 nM of human KLK5 was then injected until the surface reached saturation. LEKTI D5 Fab fusion protein (generated as described in example 1) was then injected at concentrations between 30 pM and 100 nM. Values from buffer only injections were first subtracted from those obtained with the analytes before fitting to a 1:1 binding kinetic model in Biacore™ evaluation software (GE Life Sciences™)"}},
  "note": "Numbering of substitutions follows the chain as printed. Where “and” joins values, the source holds several entries; their conditions need not be identical. Equal entries are not always repeated.",
  "data": [
    {"binder": "B1", "values": [
      {"measurement": "Kd", "setting": "Active human KLK5 [1]", "value": 1.25, "unit": "nM"},
      {"measurement": "koff", "setting": "Active human KLK5 [1]", "value": 0.00486, "unit": "s⁻¹"},
      {"measurement": "kon", "setting": "Active human KLK5 [1]", "value": "3.89e+06", "unit": "M⁻¹ s⁻¹"},
      {"measurement": "fold decrease of affinity against 10236gL6gH12", "setting": "Active human KLK5 [2]", "value": 4.5, "unit": "fold"}
    ]},
    {"binder": "B2", "values": [
      {"measurement": "Kd", "setting": "Active human KLK5 [1]", "value": "0.314 nM and 0.283 nM"},
      {"measurement": "koff", "setting": "Active human KLK5 [1]", "value": "0.000711 s⁻¹ and 0.000658 s⁻¹"},
      {"measurement": "kon", "setting": "Active human KLK5 [1]", "value": "2.26e+06 M⁻¹ s⁻¹ and 2.33e+06 M⁻¹ s⁻¹"},
      {"measurement": "IC50 (read off the curve)", "setting": "Active cyno KLK5", "value": "~0.1", "unit": "nM"},
      {"measurement": "Kd", "setting": "Active human KLK5 [3]", "value": 0.299, "unit": "nM"},
      {"measurement": "Kd", "setting": "Active human KLK5 [4]", "value": 0.324, "unit": "nM"},
      {"measurement": "koff", "setting": "Active human KLK5 [4]", "value": 0.00066, "unit": "s⁻¹"},
      {"measurement": "kon", "setting": "Active human KLK5 [4]", "value": "2.04e+06", "unit": "M⁻¹ s⁻¹"}
    ]},
    {"binder": "B3", "values": [
      {"measurement": "Kd", "setting": "Active human KLK5 [5]", "value": 0.04, "unit": "nM"},
      {"measurement": "koff", "setting": "Active human KLK5 [6]", "value": 0.0016, "unit": "s⁻¹"},
      {"measurement": "Kd", "setting": "Active human KLK5 [7]", "value": 540, "unit": "nM"},
      {"measurement": "koff", "setting": "Active human KLK5 [8]", "value": "2.3e-05", "unit": "s⁻¹"},
      {"measurement": "kon", "setting": "Active human KLK5 [8]", "value": 570000, "unit": "M⁻¹ s⁻¹"},
      {"measurement": "koff", "setting": "Active human KLK5 [9]", "value": "2.3e-05", "unit": "s⁻¹"},
      {"measurement": "kon", "setting": "Active human KLK5 [9]", "value": 570000, "unit": "M⁻¹ s⁻¹"},
      {"measurement": "Kd", "setting": "Active human KLK5 [10]", "value": 120, "unit": "nM"},
      {"measurement": "koff", "setting": "Active human KLK5 [10]", "value": 0.0073, "unit": "s⁻¹"},
      {"measurement": "kon", "setting": "Active human KLK5 [10]", "value": 59000, "unit": "M⁻¹ s⁻¹"}
    ]}
  ]
}
